The values that follow come from patent US20120269827A1, “Compositions and Methods for Treatment of Ovarian, Peritoneal, and Fallopian Tube Cancer” (ImmunoGen, Inc., priority 2011, published 2012).

Entries after “also recorded” stand apart in the source; their conditions may differ.

In assay [1] the test system is COLO 720E human ovarian carcinoma xenografts. Put plainly: Anti-tumor effect of lorvotuzumab mertansine and gemcitabine in established subcutaneous COLO 720E xenografts (Example 1). The class given is in vivo, athymic nude mice. The conditions noted are these: for % of tumor growth for treated vs. control (T/C) / anti-tumor activity rating (NCI standards): lorvotuzumab mertansine 11 mg/kg iv once weekly x3, gemcitabine 80 mg/kg ip every three days x4, combination same doses; for tumor regressions (any): six mice per group, single-agent groups. The source says:
(§1) Mice were inoculated with human ovarian cancer cell lines and allowed to become established (average tumor size of about 100 mm^3) prior to treatment. Conjugate dosing is described based on antibody concentration. Efficacy is reported as both the % of tumor growth for treated vs. control (% T/C) and log cell kill (LCK) determined from the tumor doubling time and the tumor growth delay due to the treatment.
The anti-tumor effect of a combination of lorvotuzumab mertansine and gemcitabine was evaluated in an established subcutaneous xenograft model of ovarian cancer. Athymic nude mice were inoculated with COLO 720E human ovarian cancer cells (1×10^7 cells/animal) injected subcutaneously into the right flank. When the tumors reached about 110 mm^3 in size (10 days after tumor cell inoculation), the mice were randomly divided into four groups (six animals per group). A control group was treated with a single intravenous injection of PBS. A second group of mice were treated with the single agent lorvotuzumab mertansine at a dose of 11 mg/kg once weekly for three weeks (days 11, 18 and 25 post tumor cell inoculation) administered intravenously. The third group received single-agent gemcitabine administered intraperitoneally at a dose of 80 mg/kg every three days for a total of four injections (days 11, 14, 17 and 20 post tumor cell inoculation). A fourth group was treated with the combination of lorvotuzumab mertansine and gemcitabine with the same doses and routes of administration as for individual treatments. Tumor growth was monitored by measuring tumor size twice per week. Tumor size was calculated with the formula: length×width×height×½.

Assay [2] shares this test system. The experiment in a line: Anti-tumor effect of lorvotuzumab mertansine and topotecan in established subcutaneous COLO 720E xenografts (Example 2). The assay is classed as in vivo, athymic nude mice. The arrangement: key to anti-tumor activity rating (NCI standards): Percent T/C values less than or equal to 42% and/or LCK values of 0.5 or greater are considered active; percent T/C values less than 10% are considered highly active. To be noted: for mice tumor free until the end of the study: day 120, six mice per group; for % of tumor growth for treated vs. control (T/C) / anti-tumor activity rating (NCI standards): lorvotuzumab mertansine 11 mg/kg iv once weekly x3, topotecan 0.7 mg/kg ip 5/2/5 schedule, combination same doses. The source says: Mice were inoculated with human ovarian cancer cell lines and allowed to become established (average tumor size of about 100 mm^3) prior to treatment. Conjugate dosing is described based on antibody concentration. Efficacy is reported as both the % of tumor growth for treated vs. control (% T/C) and log cell kill (LCK) determined from the tumor doubling time and the tumor growth delay due to the treatment. […] Athymic nude mice were inoculated with COLO 720E human ovarian cancer cells (1×10^7 cells/animal) injected subcutaneously into the right flank. When the tumors reached about 115 mm^3 in size (12 days after tumor cell inoculation), the mice were randomly divided into four groups (six animals per group). A control group was treated with a single intravenous injection of PBS. A second group of mice were treated with the single agent lorvotuzumab mertansine at a dose of 11 mg/kg once weekly for three weeks (days 12, 19 and 26 post tumor cell inoculation) administered intravenously. The third group received single-agent topotecan administered intraperitoneally at a dose of 0.7 mg/kg on a 5/2/5 schedule (daily×5, 2 days off, daily×5; days 12-16 and 19-23 post tumor cell inoculation). A fourth group was treated with the combination of lorvotuzumab mertansine and topotecan with the same doses and routes of administration as for individual treatments. Tumor growth was monitored by measuring tumor size twice per week. Tumor size was calculated with the formula: length×width×height×½.

Assay [3] deals with human xenograft preclinical models for ovarian cancer. The conditions noted are these: no data given; cited from earlier work.
Assay [4] relates to COLO 720E human ovarian carcinoma xenografts. The experiment in a line: Anti-tumor effect of lorvotuzumab mertansine and DOXIL in established subcutaneous COLO 720E xenografts (Example 3). The assay is classed as in vivo, athymic nude mice. Set-up: key to anti-tumor activity rating (NCI standards): Percent T/C values less than or equal to 42% and/or LCK values of 0.5 or greater are considered active; percent T/C values less than 10% are considered highly active.
Excerpt: as §1
The anti-tumor effect of a combination of lorvotuzumab mertansine and DOXIL® (i.e., PEGylated Liposomal Doxorubicin (PLD)) was evaluated in an established subcutaneous xenograft model of ovarian cancer. Athymic nude mice were inoculated with COLO 720E human ovarian cancer cells (1×10^7 cells/animal) injected subcutaneously into the right flank. When the tumors reached about 100 mm^3 in size (10 days after tumor cell inoculation), the mice were randomly divided into four groups (six animals per group). A control group was treated with a single intravenous injection of PBS. A second group of mice were treated with the single agent lorvotuzumab mertansine at a dose of 11 mg/kg once weekly for three weeks (days 10, 17 and […] post tumor cell inoculation) administered intravenously. The third group received single-agent DOXIL® at a dose of 11 mg/kg (single injection on day 10 post tumor cell inoculation) administered intravenously. A fourth group was treated with the combination of lorvotuzumab mertansine and DOXIL® with the same doses and routes of administration as for individual treatments. Tumor growth was monitored by measuring tumor size twice per week. Tumor size was calculated with the formula: length×width×height× 1/2.

Setting [5] is: lorvotuzumab mertansine 11 mg/kg iv once weekly x3, DOXIL 11 mg/kg iv single injection, combination same doses.

As to `Nc1ccn([C@@H]2O[C@H](CO)[C@@H](O)C2(F)F)c(=O)n1` [gemcitabine, reference compound], in assay [1], the “% of tumor growth for treated vs. control (T/C)” value (“% of tumor growth” for short) stood at 77%, the “anti-tumor activity rating (NCI standards)” value (“anti-tumor activity rating” below) is “inactive” and the “tumor regressions (any)” value was “no regressions”.
In the case of `CC[C@@]1(O)C(=O)OCc2c1cc1n(c2=O)Cc2cc3c(CN(C)C)c(O)ccc3nc2-1` [topotecan, reference compound], in assay [2], the “mice tumor free until the end of the study” value was “no tumor-free mice”, the “% of tumor growth” value is recorded as 26% and the “anti-tumor activity rating” value is reported as “active”. Also, the “complete regression (CR)” value in assay [2] (six mice per group) is reported as “one of six”.

B1: lorvotuzumab mertansine: antibody-drug conjugate comprised of the CD56-binding monoclonal antibody huN901, the SPP linker, and the maytansinoid cytotoxic agent DM1 (conjugate, chains of the INN, looked up)
VH: QVQLVESGGGVVQPGRSLRLSCAASGFTFSSFGMHWVRQAPGKGLEWVAYISSGSFTIYYADSVKGRFTISRDNSKNTLYLQMNSLRAEDTAVYYCARMRKGYAMDYWGQGTLVTVSS
VL: DVVMTQSPLSLPVTLGQPASISCRSSQIIIHSDGNTYLEWFQQRPGQSPRRLIYKVSNRFSGVPDRFSGSGSGTDFTLKISRVEAEDVGVYYCFQGSHVPHTFGQGTKVEIK
modifications: SPP linker, DM1 maytansinoid
In the case of B1, in assay [2], the “mice tumor free until the end of the study” value was “no tumor-free mice”, the “% of tumor growth” value is given as 59% and the “anti-tumor activity rating” value is “inactive”. Moreover, the “partial regression (PR)” value in assay [2] (six mice per group) is “one of six”. In addition, in assay [1], the “% of tumor growth” value came out at 38%, the “anti-tumor activity rating” value is recorded as “modest antitumor activity; also recorded: active” and the “tumor regressions (any)” value is “no tumor regressions”. In addition, the “antitumor activity as a single agent” value in assay [3] was “marked antitumor activity”. For the same molecule, in assay [4] (day 118, six mice per group), the “mice remaining tumor free to the end of the study” value is “one”. Further, in assay [4] (setting [5]), the “% of tumor growth” value is 14% and the “anti-tumor activity rating” value is reported as “active”. In addition, in assay [4] (six mice per group), the “complete regressions (CR)” value is “one and one of six”.
